Laboratory results published in paper PMC8481289, “Structural basis for UFM1 transfer from UBA5 to UFC1” (Nature Communications, 2021).

B4: UFC1 (WT) (enzyme, human)
chain: MADEATRRVVSEIPVLKTNAGPRDRELWVQRLKEEYQSLIRYVENNKNADNDWFRLESNKEGTRWFGKCWYIHDLLKYEFDIEFDIPITYPTTAPEIAVPELDGKTAKMYRGGKICLTDHFKPLWARNVPKFGLAHLMALGLGPWLAVEIPDLIQKGVIQHKEKCNQ
notes: UFC1, the E2 of UFM1; active site C116; 15N-labelled (M9 medium with 15NH4Cl) for the NMR titrations; In the two crystal structures UFC1 stood as part of a fusion chain; also called E2

Experiments:
Settings in all cases: both partners purified
[1] = target: B4; assay: crystal structure; UBA5(389-404) fused to the C-terminus of UFC1; 2.4 Å; the UBS binds the UFC1 of a fusion molecule of another asymmetric unit; 35 mM citric acid, 65 mM bis-tris propane, 19% PEG3350, 100 mM LiCl, 20 °C
[2] = target: B4; assay: crystal structure; UBA5(347-404) fused to the N-terminus of UFC1; 2.65 Å; the UBS binds the UFC1 of a molecule of another asymmetric unit; 2% tacsimate pH 7.0, 20% PEG 3350, 0.1 M HEPES pH 7.5, 6 mM zinc sulfate, 20 °C
[3] = target: B4; assay: ITC; UFC1 titrated into the UBA5 construct (heat per mole of UFC1); MicroCal PEAQ ITC, 25 °C; 20 mM Tris pH 7.5, 50 mM NaCl, 2 mM DTT; 19 injections of 2 μl; fitted to the two sets of sites model
[4] = target: T1, UBA5 Y372A (human, UniProt Q9GZZ9 1-404, Y372A); assay: as above
T1 construct: UBA5, human, point mutant in the linker between UIS and UBS

[5] = target: T2, UBA5 double mutant C250A and A371C (human, UniProt Q9GZZ9 1-404, C250A | A371C); assay: cross-linking; disulfide trapping: DPDS-activated UFC1-NC (4 μM) mixed with 2 μM UBA5 (WT or mutants) in PBS, 25 °C, 20 min; non-reducing SDS-PAGE, Coomassie
T2 construct: UBA5, human, active site Cys removed and a Cys placed in the linker

[6] = target: T3, UBA5 WT (human, UniProt Q9GZZ9 1-404); assay: as above
T3 construct: UBA5, human; active site C250; also called E1

B1: UBA5 (389-404) (domain or fragment, human, UniProt Q9GZZ9 389-404, looked up)
chain: DSGESLEDLMAKMKNM
notes: UBA5, human, residues 389-404 (holds the UBS); Never stood alone: it was fused to the C-terminus of UFC1 for the crystal structure; also called UBS; source: E. coli T7 express, purified, as part of the fusion UFC1-UBA5(389-404)
binding result [1]: binds

B2: UBA5(347–404) (domain or fragment, human, UniProt Q9GZZ9 347-404, looked up)
chain: SEVSEEELKNFSGPVPDLPEGITVAYTIPKKQEDSVTELTVEDSGESLEDLMAKMKNM
notes: In the crystal structure 7NVK the same stretch stood fused to the N-terminus of UFC1
binding result [2]: binds

B3: UBA5(Δ349-389) (enzyme, human)
chain: MAESVERLQQRVQELERELAQERSLQVPRSGDGGGGRVRIEKMSSEVVDSNPYSRLMALKRMGIVSDYEKIRTFAVAIVGVGGVGSVTAEMLTRCGIGKLLLFDYDKVELANMNRLFFQPHQAGLSKVQAAEHTLRNINPDVLFEVHNYNITTVENFQHFMDRISNGGLEEGKPVDLVLSCVDNFEARMTINTACNELGQTWMESGVSENAVSGHIQLIIPGESACFACAPPLVVAANIDEKTLKREGVCAASLPTTMGVVAGILVQNVLKFLLNFGTVSFYLGYNAMQDFFPTMSMKPNPQCDDRNCRKQQEEYKKKVAALPKQEVIQEEEEIIHEDNEWGIELVSEGSGSGESLEDLMAKMKNM
notes: UBA5, human, up to residue 348; UBA5, human, from residue 390 to the C-terminus (holds the UBS); Linker between UIS and UBS removed, UBS kept
Kd [3]: 5.5 µM

B4
binding result [4]: binds

B5: UFC1-NC (enzyme, human)
chain: MADEATRRVVSEIPVLKTNAGPRDRELWVQRLKEEYQSLIRYVENNKNADNDWFRLESNKEGTRWFGKSWYIHDLLKYEFDIEFDIPITYPTTAPEIAVPELDGKTAKMYRGGKICLTDHFKPLWARNVPKFGLAHLMALGLGPWLAVEIPDLIQKGVIQHKEKSNQ
modifications: activated with the crosslinker 2,2' dithiodipyridyldisulfide (DPDS); only the active site C116 is left
notes: UFC1 with C69 and C165 mutated to serine, leaving only the active site C116
binding result [5]: binds
binding result [6]: binds
